Consider eleven molecules from patent publication US11549115B2, “Compositions and methods for regulated gene expression” (YALE UNIVERSITY, priority 2017, dated 2023).

The test system of one series is sialidases. To be noted: cited from earlier work.
For series [1], the system named is B. thetaiotaomicron. Description: Polymyxin B susceptibility (MIC, E-test strips). It is filed as cell-based, Bacteroides thetaiotaomicron. Particulars: for PMB resistance of B. thetaiotaomicron lpxF mutant expressing lpxF from the promoter: no TetR. The protocol: Minimum inhibitory concentrations (MICs) were determined on solid medium using E-test strips (Biomerieux) as previously described (Cullen, T. W. et al., 2015, Science, 347:170-175), except that cultures were initially grown for 18 hours in liquid medium. Cultures were adjusted to OD600˜1.0 and 100 μL of cell suspension was then spread onto BHI-blood agar plates. Surface liquid was allowed to dry in a fume hood for 10 minutes, followed by application of the E-test strip to the agar surface.

Series [2] deals with B. thetaiotaomicron. To be noted: cited from earlier work.
Series [3] deals with B. thetaiotaomicron. In words: aTC-induced expression of periplasm-targeted T6SS effectors (viability, culture density). It is filed as cell-based, Bacteroides thetaiotaomicron. To be noted: under P1TDP in Bt::tetR, aTC added. The source says: To direct Bte1 and Bfe1 to the periplasm upon expression in B. thetaiotaomicron, the genes encoding each effector were first PCR amplified from genomic DNA purified from B. fragilis NCTC 9343 and B. fragilis 638R, respectively, using the CTAB method. A periplasmic localization signal was searched for that would be cleaved after translocation to prevent steric hindrance of the effector. To identify proteins that encode N-terminal B. thetaiotaomicron periplasmic localization signals that are post-translationally cleaved after protein translocation, the proteome of the Bacteroides thetaiotaomicron VPI-5482 chromosome was searched for signal peptides (PTM/Processing; Molecule Processing, Signal Peptide) using UniProt (UniProt Consortium, 2015, Nucleic Acids Research, 43:D204-D212). To exclude membrane proteins that potentially encode an uncleaved signal peptide, the search was refined by an additional query for the term “periplasmic” under Protein name. To identify a short periplasmic signal, the maximum length for the signal peptide was set at 20 amino acids. […] Therefore, the B. fragilis effectors were fused at the 5′ end (minus the ATG start codon) to the first 63 base pairs (encoding the first 21 amino acids) of the BT4676 open reading frame (see Table 2 for sequence) in order to localize them to the periplasm after expression in B. thetaiotaomicron.

Series [4] deals with NanoLuc luciferase reporter in B. thetaiotaomicron. Description: NanoLuc luciferase assay from in vitro samples (promoter activity). The class given is cell-based, Bacteroides thetaiotaomicron. As to the method:
The NanoLuc luciferase assay was performed as described (Mimee, M. et al., 2015, Cell Syst., 1:62-71), with the following modifications. All strains were first grown for 18 hours in TYG medium or Gut Microbiota Medium and diluted 250-fold into fresh medium in appropriate conditions (with or without aTC). Cultures were grown to mid exponential phase (OD600 0.3-0.4) and colony forming units (CFU) were measured by dilution plating. 500 μL of the culture was centrifuged at 21,130×g for 3 minutes, resuspended in 50 μL 1× BugBuster (Novagen) in 1×PBS and lysed by one cycle of freeze-thaw and nutation at 26° C. for 10 minutes. Lysates were cleared of cellular debris by centrifugation at 21,130×g for 10 minutes at 4° C. 10 μL of the supernatant was mixed with an equal volume of NanoLuc Reaction Buffer using the Nano-Glo Luciferase Assay System (Promega) and incubated for 5 minutes at 26° C. to induce luminescence production. Relative Light Units (RLU) were measured using a fluorescence plate reader (BioTek Synergy H1) with an integration time of 1 second at a gain setting of 100. Luminescence values were normalized to colony forming units (CFUs) because experimental conditions (e.g., growth medium, antibiotics, aTC, heterologous gene expression) affect the correlation between CFUs and OD600 in Bacteroides.

For the molecule `CC(=O)N[C@H]1[C@H]([C@H](O)[C@H](O)CO)O[C@@](Oc2ccc([N+](=O)[O-])cc2)(C(=O)O)C[C@@H]1O` [pNP-SA, 2-O-(p-Nitrophenyl)-t-D-N-acetylneuraminic acid], in the series on sialidases, the Km is 110 µM.

For the molecule polymixin B [PMB], the “PMB MIC” value in the series with B. thetaiotaomicron [1] (Bt::tetR lpxF carrying P1TDP-lpxF fusion, TetR repressed, no aTC) was less than 0.064 µg/mL; in the series with B. thetaiotaomicron [1] (wildtype B. thetaiotaomicron), more than 1024 µg/mL. The “reduction of PMB MIC by TetR repression of P1TDP-lpxF” value with B. thetaiotaomicron [1] (Bt::tetR lpxF, no aTC) was “over 10,000 fold”. Also, the “reduction of PMB resistance by deletion of lpxF” value in the series on B. thetaiotaomicron [2] was “four orders of magnitude”.

B1: P1TD: Synthetic aTC-inducible promoter (distal tetO2) + RBS GH023 (nucleic acid)
DNA: TTTGCACCCGCTTTCCAAGAGAAGAAAGCCTTGTTAAATTGACTTAGTGTAAAAGCGCAGTACTGCTTGACCATAAGAACAAAAAAATCTCTATCACTGATAGGGATAAAGTTTGGAAGATAAAGCTAAAAGTTCTTATCTTTGCAGTCCGAAATAAAGACATATAAAAGAAAAGACACCATG
modifications: P1TD Synthetic aTC-inducible promoter (distal tetO2)+RBS GH023
For the molecule B1, in the series on B. thetaiotaomicron [1], the “PMB resistance of B. thetaiotaomicron lpxF mutant expressing lpxF from the promoter” value (“PMB resistance … from the promoter” for short) is listed as “increases PMB resistance to wildtype levels”.

B2: P2: Constitutive promoter of Bacteroides 16S rDNA (nucleic acid)
DNA: AAGAAAAGGCGTTTTGTTTTTCTTCTTTACCTTCTTTCCCTTTCGCTAAGAGAGTCTGAGAAACGATAGAAAAAGAAAAGCGAAAAAACTTCCGAAAACATTTGGTAGTTAAAATAAAACCTCTTACCTTTGCACCC
modifications: P2 Constitutive promoter (last nucleotide is +1 TSS)
notes: Constitutive promoter of Bacteroides 16S rDNA
Regarding B2, the “PMB resistance … from the promoter” value in the series with B. thetaiotaomicron [1] is “increases PMB resistance to wildtype levels”.

B3: ss-Bte1: Periplasmic localized T6SS effector from B. fragilis NCTC 9343 (protein)
chain: MKKILSLLVMAIVAIQFSFAGGKEIEIKKLPEFEAMVNAGNTTYTGLVEGIGYVYWTTETLYFIRTNPEQLWAIPKYQQIPFPYFQRKDAIIETKTLHTLHVLSKDELLKLDYDAYYAFYGIVEEMLKFIHRADAIKSYCEIPLPIIKSKGALKGNDARNGILSLGSQINDQIGAPLDAANMLMDNKHIGKIGDGLSLISIIDEVGNGEYWSAAGDILLFAAGKTKLSPYMTVISLGTWMYETDLMQWRLACINYSDYKKTLIKYRELQKKFESGDKSVEEKMNECHKILNSHYIEMQKNLGNLGVKF
modifications: Periplasmic-localized T6SS effector from B. fragilis NCTC 9343
Take B3: the “toxicity on expression in B. thetaiotaomicron” value in the series with B. thetaiotaomicron [3] is “highly toxic”.

B4: P1TP: Synthetic aTC-inducible promoter (proximal tetO2) + RBS GH023 (nucleic acid)
DNA: TTTTGCACCCGCTTTCCAAGAGAAGAAAGCCTTGTTAAATTGACTTAGTGTAAAAGCGCAGTACTGCTTGACCATAAGAACAAAAAAACTTCCGATAAAGTTTGGAAGATAAAGCTAAAAGTTCTTATCTTTGCAGTCTCCCTATCAGTGATAGAGACGAAATAAAGACATATAAAAGAAAAGACACCATG
modifications: P1TPSynthetic aTC-inducible promoter (proximal tetO2)+RBS GH023
Turning to B4, the “PMB resistance … from the promoter” value in the series with B. thetaiotaomicron [1] is “increases PMB resistance to wildtype levels”.

B5: P1TDP^B40: Synthetic aTC-inducible promoter (distal and proximal tetO2) + RBS B40 (nucleic acid)
DNA: TTTGCACCCGCTTTCCAAGAGAAGAAAGCCTTGTTAAATTGACTTAGTGTAAAAGCGCAGTACTGCTTGACCATAAGAACAAAAAAATCTCTATCACTGATAGGGATAAAGTTTGGAAGATAAAGCTAAAAGTTCTTATCTTTGCAGTCTCCCTATCAGTGATAGAGACGCATTTTAAAATAAAATAAATCATGTAGTTAATTAAACGAATCCATG
modifications: P1TDP-B40 Synthetic aTC-inducible promoter (distal and promixal tetO2)+RBS B40
Take B5: the “increase of dynamic response to aTC over P1TDP^GH023” value in series [4] (Bt::tetR) worked out at 3.3 fold. Further, the “reporter expression relative to background in uninduced state” value in series [4] (Bt::tetR (TetR present), no aTC) was 1.4 fold. The “induction of reporter activity (luminescence) in response to aTC” value in series [4] (Bt::tetR, aTC 100 ng/mL) is listed as 9,100 fold.

B6: P1TDP^C56: Synthetic aTC-inducible promoter (distal and proximal tetO2) + RBS C56 (nucleic acid)
DNA: TTTGCACCCGCTTTCCAAGAGAAGAAAGCCTTGTTAAATTGACTTAGTGTAAAAGCGCAGTACTGCTTGACCATAAGAACAAAAAAATCTCTATCACTGATAGGGATAAAGTTTGGAAGATAAAGCTAAAAGTTCTTATCTTTGCAGTCTCCCTATCAGTGATAGAGACGCATTTTAAAATAAAATAAATTATTCGTTTAGTTAAACGAATCCATG
modifications: P1TDP-C56 Synthetic aTC-inducible promoter (distal and promixal tetO2)+RBS C56
Take B6: the “luminescence lower than the weakest native promoter tested” value in series [4] (OFF state, 18 native B. thetaiotaomicron promoters) is listed as 6.7 fold.

B7: P1TDP^A21: Synthetic aTC-inducible promoter (distal and proximal tetO2) + RBS A21 (nucleic acid)
DNA: TTTGCACCCGCTTTCCAAGAGAAGAAAGCCTTGTTAAATTGACTTAGTGTAAAAGCGCAGTACTGCTTGACCATAAGAACAAAAAAATCTCTATCACTGATAGGGATAAAGTTTGGAAGATAAAGCTAAAAGTTCTTATCTTTGCAGTCTCCCTATCAGTGATAGAGACGCATTTTAAAATAAAATAAATTATTTATGATATTAAACGAATCCATG
modifications: P1TDP-A21 Synthetic aTC-inducible promoter (distal and promixal tetO2)+RBS A21
Take B7: in series [4] (ON state, 18 native B. thetaiotaomicron promoters), the “luminescence higher than the strongest native promoter tested” value came out at 14 fold.

B8: ss-Bfe1: Periplasmic localized T6SS effector from B. fragilis 638R (protein)
chain: MKKILSLLVMAIVAIQFSFAGAYRNEYKTQSEFNVILERGDDYEGFVVGLGYTWMSSKVILPVNQNGWSPISRNVSVDESFHTIVSERKYDTSQYAYEKSLMQDPTKVSEKVRDLIVKNKGNNITEINLGQEKQYLPTDNSQISIVITDTGSRYEIVISATDNSNGKTYEAKYESLTDLVSAVRDSGSLPAVNKEGPNLEGLAGLGFGIAETAGNWAEKIMDNRGAYLPKQMRFSPKTLPPIIRLPLGNYQVPAKGMSRVRGVGKALGWAGMVLTGYQVVRDVQNGRFAVAGTRIAVAGLAYGVTFIPYVGWVLAIGIGVADYTWGDEFYDWIDNRASELEMWWDGVRLAL
modifications: Periplasmic-localized T6SS effector from B. fragilis 638R
For the molecule B8, in the series with B. thetaiotaomicron [3], the “toxicity on expression in B. thetaiotaomicron” value is reported as “highly toxic”.

B9: P1: Constitutive promoter of Bacteroides 16S rDNA (BT_r09 P1) (nucleic acid)
DNA: TTTTGCACCCGCTTTCCAAGAGAAGAAAGCCTTGTTAAATTGACTTAGTGTAAAAGCGCAGTACTGCTTGACCATAAGAACAAAAAAACTTCCGATAAAGTTTGGAAGATAAAGCTAAAAGTTCTTATCTTTGCAGTC
modifications: Constitutive promoter (last nucleotide is +1 TSS)
As to B9, the “PMB resistance … from the promoter” value in the series with B. thetaiotaomicron [1] was “increases PMB resistance to wildtype levels”. For the same molecule, in series [4] (Bt::tetR, no aTC), the “effect of TetR on promoter activity” value is on record as “no effect”.

The Km is the concentration of substrate that gives half-maximal velocity.
